Reference: publication PMC8485325, “Penetrating the Blood-Brain Barrier with New Peptide–Porphyrin Conjugates Having anti-HIV Activity” (Bioconjugate Chemistry, 2021)
Read-outs that look alike come from different tables or passages of the source. Ends that are not written are not given here.

Legend:
bEnd.3 cell monolayers [1] = system: bEnd.3 cell monolayers
Description: (§1) Figure 4 PPCs translocation across a bEnd.3 in vitro BBB model. (A) bEnd.3 in vitro BBB model transwell system. The insert, or apex, corresponds to the blood side, while the base (bottom chamber) corresponds to the brain side. (B) After formation of a monolayer, 10 μM of each conjugate was added to the apical side of the tissue culture inserts. After incubation for 24 h, samples from the basolateral side were collected, and the percentage of translocation of each conjugate (black) was calculated. FD4 permeability (gray) was measured to determine monolayer integrity post-PPCs translocation.
After 24 h incubation with conjugates, an in vitro integrity assay was performed.[19] Briefly, cells were washed twice with PBS and once with DMEM medium without phenol red. Then, previously diluted 4 kDa fluorescein isothiocyanate-dextran (FD4) (Sigma-Aldrich, Spain) in DMEM without phenol red to an absorbance of 0.1 was added to the apical side and incubated for 2 h. Samples were collected from the apical and basolateral side, and fluorescence intensity was measured with λext = 493 nm and λem = 520 nm, using a Varioskan Lux plate reader. The integrity of the barrier was determined as follows: [drawing 2] 2 where Fi is the recovered fluorescence intensity, Fcells is the recovered fluorescence intensity from cells without FD4 incubation, FFD4 is the fluorescence intensity of total FD4 initially added to the transwell apical side, and FMedium is the fluorescence intensity of DMEM medium without phenol red.

HIV-1NL4-3 = assay: In vitro inhibition of HIV-1NL4-3 infection of TZM-bl cells (luciferase reporter); assay type: cell-based; settings: for IC50: TZM-bl cells; for HIV inhibition (in words): in vitro, absence of photoactivation
Description: Viral supernatants harvested from pNL4-3-transfected HEK293T cells were titered through the Reed-Muench method[56] based on HIV-1NL4–3 infectivity against TZM-bl cell cultures. TZM-bl cells were seeded at 2 × 10^4 cells/well in tissue culture-treated 96-well microplates from Corning (Corning, NY, USA), and incubated for 24 h. Cells were then incubated with 2-fold serial dilutions of viral supernatants for 3 h, after which the supernatant was replaced with fresh complete medium. After 45 h, TZM-bl cell infection was quantified through luciferase reporter-gene expression levels, under the control of an HIV-1 TAT-dependent LTR promoter[57] using the Luc-Screen luciferase chemiluminescence detection system. Luminescence was measured in an Infinite M200 microplate reader from Tecan (Männedorf, Switzerland). […] Titration was performed with at least four replicates to allow accurate estimation of TCID50 in viral supernatants.
The inhibitory activity of conjugates on HIV-1NL4–3 entry into TZM-bl cells was evaluated as previously described.[58] TZM-bl cells were seeded at 2 × 10^4 cells/well in tissue culture-treated 96-well microplates and incubated for 24 h. HIV-1NL4–3 viral supernatants (100 or 10 TCID50/well) were then incubated for 1 h with 2-fold serial dilutions of either nonconjugated peptide and porphyrins or conjugates, after which the infection mixture was added to TZM-bl cells. Untreated cells (in the absence of peptide–porphyrin conjugate) were used as control. Virions were incubated with cells for 3 h, after which cells were washed to remove unbound virions and new medium was added. After 45 h, infection was quantified by the Luc-Screen chemiluminescence assay. Measurements were performed in an Infinite M200 microplate reader. […] At least three independent experiments were performed for each assay.

bEnd.3 cell monolayers [2] = assay: In vitro BBB translocation assay (bEnd.3 transwell model)
Text: Assessment of PPC efficacy in BBB translocation was done in a transwell setup (Figure 4A) using bEnd.3 cell monolayers.[44] The bEnd.3 in vitro BBB model consists of a monolayer of cells expressing a range of essential BBB transporters, also bearing the low permeability characteristic of the BBB, suitable for this study.[44]−[46]
as §1
An in vitro BBB model consisting of endothelial cells growing on the apical side of a porous membrane was used.[46] bEnd.3 cells (ATTCC-CRL2299) were cultured as a monolayer on T-flasks in DMEM supplemented with 10% fetal bovine serum (FBS), 1% penicillin/streptomycin. Cells were grown in a humidified atmosphere of 5% CO2 at 37 °C (MCO-18AIC (UV), Sanyo, Japan) with the medium changed every other day. Cells were allowed to grow until confluence in a culture T-flask, and then carefully harvested with trypsin-EDTA and seeded (3500 cells/well) onto fibronectin-coated tissue culture 24-well inserts (transparent polyester membrane with 1.0 μm pores) (BD Falcon, USA). The medium was changed every other day for 10 days, after which cells were washed twice with 1× PBS and once with DMEM medium without phenol red. Next, conjugates diluted in DMEM without phenol red to a final concentration of 10 μM were added to the apical side of the in vitro BBB model (Figure 4A). Experiments were performed on different days using independently grown cell cultures.
The translocation of conjugates was determined by fluorescence intensity (λexc = 380 nm and λem = 625 nm for MP conjugates, and λexc = 380 nm and λem = 675 nm for PP conjugates). P3-CF and P5-CF, peptides labeled with 5(6)-Carboxyfluorescein (CF), were used as positive translocation controls (λexc = 492 nm and λem = 517 nm). After 24 h incubation, samples from the apical and basolateral side were collected and analyzed. Fluorescence was measured using a Varioskan Lux plate reader (Thermo Scientific, MA, USA). The percentage (%) of translocation was calculated using the following equation: [drawing 1] 1 where Fi is the recovered fluorescence intensity, Fcells is the recovered fluorescence intensity from cells without the conjugate, and Fconjugate is the fluorescence intensity of total peptide initially added to the transwell apical side.

human erythrocytes = assay: Hemolysis assay; assay type: cell-based
Description: Plates were incubated for 1 h at 37 °C with 100 rpm stirring, then centrifuged for 5 min at 4000 rpm, 4 °C, and supernatants were transferred to a 96-well flat-bottom polystyrene plate (Corning). Hemolysis was assessed by hemoglobin (Hb) release, measured by absorbance at 415 nm in a Varioskan LUXTM microplate reader (Thermo Fisher Scientific, Inc.). As porphyrin and Hb spectra are partially overlapping, to exclude porphyrin interference in Hb quantification a blank reading of each PPC (no hRBCs, TN buffer +1% DMSO) was subtracted from each measurement. TN buffer (+1% DMSO, no conjugate) and hRBCs with 1% Triton X-100 were used as negative and positive controls, respectively. Hemolysis (%) was determined using the following equation: [drawing 6] 6 where Abstreated is the absorbance of hRBC treated with the conjugates, Absconjugate is the absorbance from each conjugate concentration without hRBCs, AbsTriton is the absorbance of Triton X-100 treated hRBCs, and Absbuffer is the absorbance of TN buffer alone. HC50 values were determined by GraphPad Prism 8 software using a log(inhibitor) vs normalized response (variable slope). Experiments were performed using 3 different blood donors.

[3] = 10 TCDI50 per well (approximate physiological conditions of HIV brain infection), read-out: IC50 HIV inhibition, 10 TCDI50
[4] = 100 TCDI50 per well, no-light, read-out: IC50 HIV inhibition, 100 TCDI50

Substance: MP-P5: mesoporphyrin IX coupled to the N-terminal amino group of peptide P5 (SGTQEEY-amide) ({mesoporphyrin IX}-SGTQEEY-NH2)
- % Base (RFI), FD4 Permeability (monolayer integrity post-translocation) (bEnd.3 cell monolayers [1]): 9.4%
- IC50 (HIV-1NL4-3; [3]): 10 ± 2.9 µM
- IC50 (HIV-1NL4-3; [4]): 33.1 ± 1.38 µM
- HIV inhibition (in words) (HIV-1NL4-3): inhibit HIV in vitro
- BBB translocation (in words) (bEnd.3 cell monolayers [2]): able to effectively pass the BBB
- Hemolytic activity (in words) (human erythrocytes): totally lacked hemolytic activity

Substance: P4-MP: mesoporphyrin IX coupled to the C-terminal Lys side chain of peptide P4 (AGILKRWK-amide) (AGILKRWK(mesoporphyrin IX)-NH2)
- % Base (RFI), FD4 Permeability (monolayer integrity post-translocation) (bEnd.3 cell monolayers [1]): 15.3%
- IC50 (HIV-1NL4-3; [3]): 5.77 ± 1.17 µM
- IC50 (HIV-1NL4-3; [4]): 34 ± 1.25 µM
- HIV inhibition (in words) (HIV-1NL4-3): inhibit HIV in vitro
- BBB translocation (in words) (bEnd.3 cell monolayers [2]): able to effectively pass the BBB
- Hemolytic activity (in words) (human erythrocytes): totally lacked hemolytic activity
